{
  "source": "patent CN114560932A",
  "about": "(MILITARY MEDICINE RES INSTITUTE OF CHINESE PEOPLE …, dated 2022)",
  "binders": {"B1": {"name": "人鼠嵌合全抗体mhS1 (antibody, V domains shown)", "VH": "QVQLKESGAELVKPGASVKLSCTASGFNIKDTYIHWMKQRPEQGLEWIGRIDPANGHSIYDPKFQGKATITADASSNAAYLQLSSLTSEDTAVYYCARSYGYEKRYAMDYWGQGTSVTVSS", "VL": "DIVMTQTTSSLSASLGDRVTISCSASQGISNYLNWYQQKPDGTVKVLIYYTSTLHSGVPSRFSGSGSGTDYSLTISNLEPEDIATYYCQQYSKLPWTFGGGTKLEMKR"}},
  "key": {"[1]": {"target": "鼠疫菌F1重组蛋白 (Yersinia pestis, UniProt P26948 22-170)", "sequence (P26948 22-170 limits assumed)": "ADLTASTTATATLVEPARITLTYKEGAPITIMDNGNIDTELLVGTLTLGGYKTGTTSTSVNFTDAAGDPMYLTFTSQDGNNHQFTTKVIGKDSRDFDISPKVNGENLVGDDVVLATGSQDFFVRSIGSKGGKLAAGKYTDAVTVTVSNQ"}, "[2]": {"target": "鼠疫杆菌V重组蛋白 (Yersinia pestis, UniProt P0C7U7 1-326)", "sequence (P0C7U7 whole entry)": "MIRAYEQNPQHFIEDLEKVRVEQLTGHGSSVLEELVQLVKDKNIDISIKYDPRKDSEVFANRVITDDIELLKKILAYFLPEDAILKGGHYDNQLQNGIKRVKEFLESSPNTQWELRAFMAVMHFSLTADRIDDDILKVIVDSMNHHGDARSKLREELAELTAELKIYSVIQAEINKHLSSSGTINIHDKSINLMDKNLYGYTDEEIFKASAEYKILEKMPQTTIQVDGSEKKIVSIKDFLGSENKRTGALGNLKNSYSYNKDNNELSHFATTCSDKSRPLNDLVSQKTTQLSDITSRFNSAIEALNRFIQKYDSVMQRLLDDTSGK", "assay": "ELISA, antigen coated at 2 μg/mL, mhS1 at 20 μg/mL, goat anti-human IgG-HRP"}},
  "data": [
    {"binder": "B1", "values": [
      {"measurement": "EC50", "setting": "[1]", "value": 0.0114, "unit": "nM"},
      {"measurement": "binding result", "setting": "[2]", "value": "no binding (tested: 20μg/mL)"}
    ]}
  ]
}
